Earlier results on one substance are cited in PMC11231610, “Fatty acid binding to the human transport proteins FABP3, FABP4, and FABP5 from a Ligand’s perspective” (The Journal of Biological Chemistry, 2024).

By Kd is commonly meant a measure of binding affinity in units of concentration.

This data set deals with Cgi-58 (Mus musculus) (UniProt Q9DBL9). Briefly: MST.
Chain of Cgi-58 (Mus musculus) (Q9DBL9 whole entry): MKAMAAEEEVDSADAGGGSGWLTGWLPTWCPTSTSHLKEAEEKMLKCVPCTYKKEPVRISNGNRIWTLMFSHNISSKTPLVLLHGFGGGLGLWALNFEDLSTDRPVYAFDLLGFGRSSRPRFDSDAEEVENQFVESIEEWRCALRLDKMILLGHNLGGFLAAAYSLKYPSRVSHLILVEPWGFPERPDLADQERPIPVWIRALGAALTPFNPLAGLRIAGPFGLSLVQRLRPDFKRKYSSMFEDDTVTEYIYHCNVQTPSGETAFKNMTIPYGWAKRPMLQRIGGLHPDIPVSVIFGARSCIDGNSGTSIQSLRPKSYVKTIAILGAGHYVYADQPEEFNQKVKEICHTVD

Chain of FABP4 (P04117 2-132): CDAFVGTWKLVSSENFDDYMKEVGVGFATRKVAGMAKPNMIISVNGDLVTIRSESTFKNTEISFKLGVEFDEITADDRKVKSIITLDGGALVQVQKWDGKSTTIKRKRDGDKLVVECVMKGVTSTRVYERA

On to FABP4 (from UniProt P04117), for which the Kd was 192 µM.
